Reference: patent US20250035634A1, “A METHOD FOR DETECTING CLUSTERING OF RAS PROTEIN” (Nanyang Technological University, priority 2021, published 2025)

System: KRasWT
Assay: nanobar-guided KRasWT clustering upon EGF activation in U2OS cells
Assay type: cell-based
Conditions: EGF 100 ng/ml, 1 hr, mean±s.e.m.
Protocol: Cell imaging is performed with laser scanning confocal microscopy (Zeiss LSM 800 with Airyscan) and a Plan-Apochromat 100×/1.4 oil objective. EGFP is excited at 488 nm and detected at 490-570 nm. RFP is excited at 561 nm and detected at 570-645 nm. Images were taken with a resolution of 512×512 pixels, 16-bit and 124 nm pixel size. A scanning speed of 20 s/image and an averaging mode of 4 times/line can be applied. During imaging, the cells are maintained in live cell imaging solution (Thermo Fisher) at 37° C. in an on-stage incubator. […] The images are conducted with a single snap shot for display of Ras variants and the quantification. For the imaging of co-expressed K-Ras variants and CRaf-RBD, z-stack images can be taken and averaged for display and the intensity profiles. […]
To quantify the nanobar-guided clustering of Ras variants, the fluorescence intensity ratio at the nanobar end to the flat sidewall (i.e. Enrichment Index, EI) is calculated. […] Next, the nanobars covered by the cell to be analyzed are identified by a custom-written MATLAB (MathWorks) code. […] To minimize the possible human bias, all the parameters for the calculation and the sorting criteria for data validation have been kept consistent throughout the entire quantification process. After the data validation, the remaining data points are ready for plotting. […]

B1: EGF: Epidermal Growth Factor used to activate wild-type K-Ras in cells (protein, UniProt P01133 23-1207, looked up)
Pro-epidermal growth factor: PQHWSCPEGTLAGNGNSTCVGPAPFLIFSHGNSIFRIDTEGTNYEQLVVDAGVSVIMDFHYNEKRIYWVDLERQLLQRVFLNGSRQERVCNIEKNVSGMAINWINEEVIWSNQQEGIITVTDMKGNNSHILLSALKYPANVAVDPVERFIFWSSEVAGSLYRADLDGVGVKALLETSEKITAVSLDVLDKRLFWIQYNREGSNSLICSCDYDGGSVHISKHPTQHNLFAMSLFGDRIFYSTWKMKTIWIANKHTGKDMVRINLHSSFVPLGELKVVHPLAQPKAEDDTWEPEQKLCKLRKGNCSSTVCGQDLQSHLCMCAEGYALSRDRKYCEDVNECAFWNHGCTLGCKNTPGSYYCTCPVGFVLLPDGKRCHQLVSCPRNVSECSHDCVLTSEGPLCFCPEGSVLERDGKTCSGCSSPDNGGCSQLCVPLSPVSWECDCFPGYDLQLDEKSCAASGPQPFLLFANSQDIRHMHFDGTDYGTLLSQQMGMVYALDHDPVENKIYFAHTALKWIERANMDGSQRERLIEEGVDVPEGLAVDWIGRRFYWTDRGKSLIGRSDLNGKRSKIITKENISQPRGIAVHPMAKRLFWTDTGINPRIESSSLQGLGRLVIASSDLIWPSGITIDFLTDKLYWCDAKQSVIEMANLDGSKRRRLTQNDVGHPFAVAVFEDYVWFSDWAMPSVMRVNKRTGKDRVRLQGSMLKPSSLVVVHPLAKPGADPCLYQNGGCEHICKKRLGTAWCSCREGFMKASDGKTCLALDGHQLLAGGEVDLKNQVTPLDILSKTRVSEDNITESQHMLVAEIMVSDQDDCAPVGCSMYARCISEGEDATCQCLKGFAGDGKLCSDIDECEMGVPVCPPASSKCINTEGGYVCRCSEGYQGDGIHCLDIDECQLGEHSCGENASCTNTEGGYTCMCAGRLSEPGLICPDSTPPPHLREDDHHYSVRNSDSECPLSHDGYCLHDGVCMYIEALDKYACNCVVGYIGERCQYRDLKWWELRHAGHGQQQKVIVVAVCVVVLVMLLLLSLWGAHYYRTQKLLSKNPKNPYEESSRDVRSRRPADTEDGMSSCPQPWFVVIKEHQDLKNGGQPVAGEDGQAADGSMQPTSWRQEPQLCGMGTEQGCWIPVSSDKGSCPQVMERSFHMPSYGTQTLEGGVEKPHSLLSANPLWQQRALDPPHQMELTQ
modifications: Pro-epidermal growth factor
  Enrichment Index (EI) of KRasWT: 1.89 ± 0.042
